Reference: paper PMC10377887, “Individual Contributions of Amido Acid Residues Tyr122, Ile168, and Asp173 to the Activity and Substrate Specificity of Human DNA Dioxygenase ABH2”

T1: ABH2 WT (human, UniProt Q6NS38 1-261)
T1 sequence: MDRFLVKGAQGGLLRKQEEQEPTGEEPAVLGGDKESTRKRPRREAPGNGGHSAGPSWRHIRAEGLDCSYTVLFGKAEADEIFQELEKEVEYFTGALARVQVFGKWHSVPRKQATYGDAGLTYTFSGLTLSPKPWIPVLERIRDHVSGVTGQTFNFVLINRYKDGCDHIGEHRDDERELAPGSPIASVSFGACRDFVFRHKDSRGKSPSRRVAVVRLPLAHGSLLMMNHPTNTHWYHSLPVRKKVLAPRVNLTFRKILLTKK


Biological target: T1, ABH2 WT
Test: EMSA; 0.5 mM αKG, 10 mM Mg2+, 2 mM ascorbate; EMSA: 50 mM Tris-HCl pH 8.0, 50 mM KCl, 10 mM MgCl2, 0.5 mM αKG, 2 mM Na ascorbate; 1.2 µM DNA, 0.4-12.8 µM protein; 10 min 37 °C then 5 min on ice; 10% native
Conditions: protein: recombinant; tags: N-terminal His6; label: 5'-FAM on strand 1; blunt

Binder | Kd [nM]
m3C (dsDNA, N3-methylcytosine at position 12 of strand 1) DNA 1: AGTTCAATGATCTTCAT DNA 2: ATGAAGATCATTGAACT | 3500 ± 100
m1A (dsDNA, N1-methyladenine at position 10 of strand 1) DNA 1: AGTTCAATGATCTTCAT DNA 2: ATGAAGATCATTGAACT | 2450 ± 70
